Patent US20260242478A1 (published 2026)
Where two headings read alike, the source gives them in different places.

Experiments:
Test in all cases: binding ELISA, biotinylated peptide on neutravidin plate, Fab titrated
[1] = target: T1, Peptide-92
T1 peptide: SCAAGASYAWPYCL

[2] = target: T2, Peptide-84
T2 peptide: YCAGHSPINIGKCL

[3] = target: T3, Peptide-79
T3 peptide: ACDTYFAGMINECF

[4] = target: T4, Peptide-41
T4 peptide: MDWCPRDLWVHCFA

[5] = target: T5, Peptide-87
T5 peptide: YCAGHAWQYINKCL

[6] = target: T6, Peptide-122
T6 peptide: YCEGHAPEYIRKCL

[7] = target: T7, Peptide-133
T7 peptide: YCEGHLPEYLEKCV

[8] = target: T8, Peptide-132
T8 peptide: YCEGHLPEYRNKCL

[9] = target: T9, Peptide-134
T9 peptide: YCEGHLPEYIQKCL

[10] = target: T10, Peptide-123
T10 peptide: YCEGHAPEYIWKCL

[11] = target: T11, Peptide-118
T11 peptide: YCEGHRPEYILKCL

[12] = target: T12, Peptide-124
T12 peptide: YCEGHSQENIWKCL

[13] = target: T13, Peptide-125
T13 peptide: YCEGHLPEYLGKCL

[14] = target: T14, Peptide-126
T14 peptide: YCEGHLPEYREKCL

[15] = target: T5, Peptide-87
[16] = target: T15, Peptide-121
T15 peptide: YCEGHAPEYIAKCL

[17] = target: T16, Peptide-127
T16 peptide: YCEGHLPEYLAKCL

[18] = target: T17, Peptide-135
T17 peptide: YCEGHLPEYIWKCL

[19] = target: T18, Peptide-128
T18 peptide: YCEGHSQEYLWKCL

[20] = target: T19, Peptide-136
T19 peptide: YCEGHAPEYIGKCL

[21] = target: T20, Peptide-153
T20 peptide: TCAAGATYLWPTCL

[22] = target: T21, Peptide-147
T21 peptide: LCAAGATYPWPTCL

[23] = target: T22, Peptide-150
T22 peptide: TCSAGAHYPWPICL

[24] = target: T1, Peptide-92
[25] = target: T23, Peptide-151
T23 peptide: SCSAGAAYYWPWCL

[26] = target: T24, Peptide-145
T24 peptide: TCSAGAAYPWPLCL

[27] = target: T25, Peptide-140
T25 peptide: TCAAGAAWPWPQCL

[28] = target: T26, Peptide-144
T26 peptide: LCAAGATYPWPLCL

[29] = target: T27, Peptide-138
T27 peptide: LCAAGASWPWPVCL

[30] = target: T28, Peptide-154
T28 peptide: TCAAGAHYPWPACL

[31] = target: T29, Peptide-152
T29 peptide: TCSAGATWAWPLCF

[32] = target: T30, Peptide-143
T30 peptide: TCAAGAAWGWPLCF

[33] = target: T31, Peptide-141
T31 peptide: TCSAGATYTWPKCF

[34] = target: T32, Peptide-148
T32 peptide: SCSAGAHYPWPQCF

[35] = target: T33, Peptide-149
T33 peptide: TCSAGATYEWPRCL

[36] = target: T34, Peptide-146
T34 peptide: TCSAGAAYSWPACF

[37] = target: T35, Peptide-139
T35 peptide: TCSAGASYPWPLCL

[38] = target: T36, Peptide-137
T36 peptide: TCSAGATWPWPICL

[39] = target: T37, Peptide-142
T37 peptide: TCAAGATWSWPACF

- EC50 [1]: 54 nM
- EC50 [2]: 337 nM
- EC50 [3]: 97 nM
- EC50 [4]: 490 nM
- EC50 [5]: 49 nM
- EC50 [6]: 7.8 nM
- EC50 [7]: 32.5 nM
- EC50 [8]: 3.2 nM
- EC50 [9]: 1.3 nM
- EC50 [10]: 8.1 nM
- EC50 [11]: 65.8 nM
- EC50 [12]: 28.1 nM
- EC50 [13]: 12.1 nM
- EC50 [14]: 3.4 nM
- EC50 [15]: 30.6 nM
- EC50 [16]: 7.1 nM
- EC50 [17]: 1.7 nM
- EC50 [18]: 2.1 nM
- EC50 [19]: 59.4 nM
- EC50 [20]: 44.9 nM
- EC50 [21]: 20.5 nM
- EC50 [22]: 25.8 nM
- EC50 [23]: 10.6 nM
- EC50 [24]: 18.9 nM
- EC50 [25]: 112 nM
- EC50 [26]: 4.4 nM
- EC50 [27]: 2.6 nM
- EC50 [28]: 5.6 nM
- EC50 [29]: 13.1 nM
- EC50 [30]: 4.2 nM
- EC50 [31]: 15.6 nM
- EC50 [32]: 5.6 nM
- EC50 [33]: 15.7 nM
- EC50 [34]: 19 nM
- EC50 [35]: 12.8 nM
- EC50 [36]: 24.3 nM
- EC50 [37]: 5.3 nM
- EC50 [38]: 2.1 nM
- EC50 [39]: 4.5 nM
B1: anti-CD28 Fab (Fab, V domains shown)
VH: QVQLVQSGAEVKKPGASVKVSCKASGYTFTSYYIHWVRQAPGQGLEWIGSIYPGNVNTNYNEKFKDRATLTVDTSISTAYMELSRLRSDDTAVYFCTRSHYGLDWNFDVWGQGTTVTVSS
VL: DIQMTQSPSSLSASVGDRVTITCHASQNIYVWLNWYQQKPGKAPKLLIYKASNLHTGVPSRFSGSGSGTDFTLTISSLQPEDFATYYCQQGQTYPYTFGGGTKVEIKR
